This passage reports X-ray crystallography, stoichiometry N and Kd results from article PMC4405576, “The Crystal Structure and Small-Angle X-Ray Analysis of CsdL/TcdA Reveal a New tRNA Binding Motif in the MoeB/E1 Superfamily” (PLoS ONE, 2015).

Data set [1] addresses T1, CsdL/TcdA (Escherichia coli, UniProt Q46927).
T1 sequence (Q46927 1-268): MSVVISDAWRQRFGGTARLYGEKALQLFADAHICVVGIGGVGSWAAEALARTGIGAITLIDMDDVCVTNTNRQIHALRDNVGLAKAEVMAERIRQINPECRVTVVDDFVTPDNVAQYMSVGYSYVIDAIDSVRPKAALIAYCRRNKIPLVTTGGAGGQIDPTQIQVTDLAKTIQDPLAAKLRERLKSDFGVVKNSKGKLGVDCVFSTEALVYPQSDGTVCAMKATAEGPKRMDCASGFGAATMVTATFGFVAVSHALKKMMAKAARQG
The experiment in a line: X-ray crystallography. To be noted: crystals in 0.05 M potassium phosphate, 10% PEG1000, basic pH, 20 °C; 1.77 Å; K+ and Na+ bound; nucleotide-binding site crystallisation; 1.89 Å; AMP as obtained directly from the cell (co-purified); n.

For data set [2], the target named is tRNA threonylcarbamoyladenosine dehydratase A (TcdA) (E. coli) (UniProt Q46927). The experiment in a line: SAXS; purified TcdA, batch setup, three concentrations between 0.5-5 mg/ml, 5°C, 20 mM sodium/potassium phosphate pH 7.4, 300 mM NaCl, 2 mM β-mercaptoethanol.
Data set [3] shares this target. The data set can be described thus: SEC; analytical gel filtration of TcdA alone; data not shown. Background: In gel filtration, larger molecules generally elute earlier.
For data set [4] the target is unchanged. The experiment in a line: AUC; sedimentation velocity and sedimentation equilibrium, 20°C, 20 mM HEPES, 100 mM KCl, 50 mM NaCl, pH 7.4; TcdA alone.
Data set [5] concerns TcdA (CsdL) (Escherichia coli). The experiment in a line: intrinsic fluorescence quenching. To be noted: native tRNA modifications possible, not determined.

Take `Nc1ncnc2c1ncn2[C@@H]1O[C@H](COP(=O)(O)O)[C@@H](O)[C@H]1O` [AMP]: the X-ray crystallography result in data set [1] is recorded as “the nucleotide-binding residues stabilize AMP in a manner analogous to ATP”.
A word on the stoichiometry N: it is the number of molecules, sites or subunits per partner or assembly. For “tRNA threonylcarbamoyladenosine dehydratase A (TcdA) (from UniProt Q46927 1-268) (enzyme)”, the stoichiometry N in data set [2], in data set [3] and in data set [4] was 2 in each case.
As usually defined, the Kd is a measure of binding affinity in units of concentration. Higher therefore signals a looser complex. For tRNALys(UUU), overexpressed in E. coli, in data set [5], the Kd worked out at 3 µM.
